In the RNAGym collection of RNA variant scans (doi:10.7554/elife.80360):

B1: CPEB3 Ribozyme (parent)
chain: GGGGGCCACAGCAGAAGCGUUCACGUCGCGGCCCCUGUCAGAUUCUGGUGAAUCUGCGAAUUCUGCUGU
B2: Hammerhead Ribozyme (parent)
chain: ACCGGAUGUGCUUUCCGGUCUGAUGAGUCCGUGAGGACGAAACAG

Variants of: B1
Test: self-cleavage, relative activity (ratio to wild type); higher = more cleavage; co-transcriptional

Variant	self-cleavage
GGGGGCCACAGCAGAAGCGUUCACGUCGCGGCCCCUGUCAGAUUCUGGUGAAUCUGCGAAUUCUGCUUG [G68U U69G]	1.02
GGGGGCCACAGCAGAAGCGUUCACGUCGCGGCCCCUGUCAGAUUCUGGUGAAUCUGCGAAUUCUGCUGC [U69C]	1.06
GGGGGCCACAGCAGAAGCGUUCACGUCGCGGCCCCUGUCAGAUUCUGGUGAAUCUGCGAAUUCUGCUGG [U69G]	1.06
GGGGGCCACAGCAGAAGCGUUCACGUCGCGGCCCCUGUCAGAUUCUGGUGAAUCUGCGAAUUCUGCUGA [U69A]	1.02

Variants of: B2
Test: as above

Variant	self-cleavage
ACGGGAUGUGCUUUCCGGUCUGAUGAGUCGGUGAGGACGAAACAG [C3G C30G]	0.273
ACCGGAUGUUCUAUCCGGUCUGAUGAGUCCGUGAGGACGAAACAG [G10U U13A]	1.48
ACCGGCUGUGCUUUCCGGUCUGAUGAGUCCGGGAGGACGAAACAG [A6C U32G]	0.477
ACCGGAUGCGCUUUCCGGUCUGAUGAGUCCGUGACGACGAAACAG [U9C G35C]	0.498
ACCGGAUGUGCUUUCCGGUCUGAUGAGUCCGUGAGGACCAAUCAG [G39C A42U]	0.39
ACUGGAUGUGCUUUCCGGUCUGCUGAGUCCGUGAGGACGAAACAG [C3U A23C]	0.491
ACCGGAUGUGCUUUCCGGUCUGAUGAGUCCGUGCGGCCGAAACAG [A34C A37C]	0.426
ACCGAAUGUGCUUUCCGGUCUAAUGAGUCCGUGAGGACGAAACAG [G5A G22A]	0.322
ACCGGAUGUGCUUUCCGGUCUGAUGAGUCCGUGAGGACGUUACAG [A40U A41U]	0.439
AUCGGAUGUGCUUUCCGGUCUGAUGAGUCCGUUAGGACGAAACAG [C2U G33U]	1.17
ACCGGAUGUACUUUCCGGUCUGAUGAGUCCGUGUGGACGAAACAG [G10A A34U]	0.919
ACCGGAUGUGCUUUCCGGUUUGCUGAGUCCGUGAGGACGAAACAG [C20U A23C]	0.353
ACCGGACGUGUUUUCCGGUCUGAUGAGUCCGUGAGGACGAAACAG [U7C C11U]	0.433
ACCGGAUGUGCUUUCCGGUCUGAUGAGUCCGUGAGGACGAAUGAG [A42U C43G]	0.255
ACCGGAUGUGCUUUCCGGUCUGAUGAGUCCGUGAGGACGAAUUAG [A42U C43U]	0.247
ACCGGAUGUUCUUUCCGGUCUCAUGAGUCCGUGAGGACGAAACAG [G10U G22C]	0.351
ACCGGAUGUGCUUUCCGGUCCGAUGAGUCCGUGAGGACGAAACCG [U21C A44C]	0.454
ACCGGAUGUGCUUCCCGCUCUGAUGAGUCCGUGAGGACGAAACAG [U14C G18C]	0.351
ACCGGAUGUGAUUUCCGGUCUGAUGAGUCCGUGAGGACGAAGCAG [C11A A42G]	0.241
ACCGGAUGUGCUUUCCGGUCUGAUCAGUGCGUGAGGACGAAACAG [G25C C29G]	0.334
ACCGGAUGUGCUUUCCGGACUGAUGAGUCCGUGAGGACGAAACAA [U19A G45A]	0.354
ACCGGAUGUGCUUUCAGGUCUGAUGAGUCCGUGAUGACGAAACAG [C16A G35U]	0.563
ACCGGUUGUGCUUUCCGGUCUGAUGAGUCCGUGACGACGAAACAG [A6U G35C]	0.473
ACCGGAUGUGCUUUCCGGUCUGAUGAGUUCGUGAGGACGAAAUAG [C29U C43U]	0.47
ACCGGAUGUGCUUUCCGGUCUGAUGAGUCCGUGAGAACGAAACAU [G36A G45U]	0.452
ACCGGAUGUGCUUUCCGGUCUGAUGAGUCAGUGAGGACGGAACAG [C30A A40G]	0.414

Variant	self-cleavage
ACCGGAUGUGAUUUCCGGUUUGAUGAGUCCGUGAGGACGAAACAG [C11A C20U]	0.681
ACCGGAUGUGCUUUCCGGUCGGAUGAGUCCGUGAGGGCGAAACAG [U21G A37G]	0.454
ACCGGAUGUGCUCUCCGGUCUGAUGAGUCCGUGAGGACGAAACAG [U13C]	1.12
ACCGGAUGUGCUUUCCGGUCUGAUGAGUCCGCGAGGACGACACAG [U32C A41C]	0.294
ACCGGGUGUGCUUUCCGGUCUGAUGAGUCCGUGAGGACGAAACAA [A6G G45A]	0.556
ACGGGAUGUGCUUUCCGGUCUGAUGAGUCCGUGAGGCCGAAACAG [C3G A37C]	0.293
ACCGGAUGUGCUUUCCGGUCUGAUGAGCCCGUGAGGACUAAACAG [U28C G39U]	0.291
ACCGGAUGUGCUUUCCGGCCUGAUGAGUGCGUGAGGACGAAACAG [U19C C29G]	0.434
ACCGGAUGUGCUUUCCGGUCUGAGGAGUCCGUGAGGACCAAACAG [U24G G39C]	0.266
ACCGGAUGUGGUUUCGGGUCUGAUGAGUCCGUGAGGACGAAACAG [C11G C16G]	0.999
ACCGGAUGUGCUAUCCGGUCUGAUGAGUCCGUGAGGUCGAAACAG [U13A A37U]	0.908
ACCGGAUGCGCUUUCCGGUCUGAUGAGUCCGUGAGGACGCAACAG [U9C A40C]	0.633
ACCGGAUGUCCUUUCCGGUCUGACGAGUCCGUGAGGACGAAACAG [G10C U24C]	0.853
ACCGGAUGUGCUUUCCGGUCUGAUUAGUUCGUGAGGACGAAACAG [G25U C29U]	0.273
ACCGGAUGUGCUUCCCGGUCUGAUGAGUCCGUGAGGACGAAGCAG [U14C A42G]	0.249
ACCGGAUGUGCUUUCCGGACUGCUGAGUCCGUGAGGACGAAACAG [U19A A23C]	0.346
ACCGGAUGUGCUAUCCGGUCUGAUGAGUCCGUGAGGACGAAUCAG [U13A A42U]	0.339
ACCGCAUGGGCUUUCCGGUCUGAUGAGUCCGUGAGGACGAAACAG [G5C U9G]	0.467
ACCCGAUGGGCUUUCCGGUCUGAUGAGUCCGUGAGGACGAAACAG [G4C U9G]	0.573
ACCGGAUGUGCUUUCCGGUCUGAUGAGUCCGAUAGGACGAAACAG [U32A G33U]	0.859
ACCGGAUGUGCUUUCCGGUCUGAUGAGACCGUUAGGACGAAACAG [U28A G33U]	0.884
ACCGGAUGUGCUUUCCGGUCUGAUGAUUCCGUGAGGACGAAACAA [G27U G45A]	0.363
ACCGGAUGUGCUUUCCGGUCUGAUGCGUCCGUGAGGACUAAACAG [A26C G39U]	0.351
ACCGGUUGUGCUUUCCGGUCUGAUGAGUCCGUGAGGACGAUACAG [A6U A41U]	0.282
ACCGGAUGUGCUCUGCGGUCUGAUGAGUCCGUGAGGACGAAACAG [U13C C15G]	0.728
ACCGGAUGUGCUUUCCGGUCAGAUGAGUCGGUGAGGACGAAACAG [U21A C30G]	0.448
